Experimental data reported in IntAct's records for PubMed 27615052.

B1: E3 ubiquitin-protein ligase LRSAM1 (Homo sapiens), Q6UWE0 (parent)
chain: MPLFFRKRKPSEEARKRLEYQMCLAKEAGADDILDISKCELSEIPFGAFATCKVLQKKVLIVHTNHLTSLLPKSCSLLSLATIKVLDLHDNQLTALPDDLGQLTALQVLNVERNQLMQLPRSIGNLTQLQTLNVKDNKLKELPDTVGELRSLRTLNISGNEIQRLPQMLAHVRTLEMLSLDASAMVYPPREVCGAGTAAILQFLCKESGLEYYPPSQYLLPILEQDGIENSRDSPDGPTDRFSREELEWQNRFSDYEKRKEQKMLEKLEFERRLELGQREHTQLLQQSSSQKDEILQTVKEEQSRLEQGLSEHQRHLNAERQRLQEQLKQTEQNISSRIQKLLQDNQRQKKSSEILKSLENERIRMEQLMSITQEETESLRRRDVASAMQQMLTESCKNRLIQMAYESQRQNLVQQACSSMAEMDERFQQILSWQQMDQNKAISQILQESAMQKAAFEALQVKKDLMHRQIRSQIKLIETELLQLTQLELKRKSLDTESLQEMISEQRWALSSLLQQLLKEKQQREEELREILTELEAKSETRQENYWLIQYQRLLNQKPLSLKLQEEGMERQLVALLEELSAEHYLPIFAHHRLSLDLLSQMSPGDLAKVGVSEAGLQHEILRRVQELLDAARIQPELKPPMGEVVTPTAPQEPPESVRPSAPPAELEVQASECVVCLEREAQMIFLNCGHVCCCQQCCQPLRTCPLCRQDIAQRLRIYHSS

Variants of: B1
Details: with G3BP1, Q13283
Chain of G3BP1, Q13283 (Q13283 whole entry, looked up): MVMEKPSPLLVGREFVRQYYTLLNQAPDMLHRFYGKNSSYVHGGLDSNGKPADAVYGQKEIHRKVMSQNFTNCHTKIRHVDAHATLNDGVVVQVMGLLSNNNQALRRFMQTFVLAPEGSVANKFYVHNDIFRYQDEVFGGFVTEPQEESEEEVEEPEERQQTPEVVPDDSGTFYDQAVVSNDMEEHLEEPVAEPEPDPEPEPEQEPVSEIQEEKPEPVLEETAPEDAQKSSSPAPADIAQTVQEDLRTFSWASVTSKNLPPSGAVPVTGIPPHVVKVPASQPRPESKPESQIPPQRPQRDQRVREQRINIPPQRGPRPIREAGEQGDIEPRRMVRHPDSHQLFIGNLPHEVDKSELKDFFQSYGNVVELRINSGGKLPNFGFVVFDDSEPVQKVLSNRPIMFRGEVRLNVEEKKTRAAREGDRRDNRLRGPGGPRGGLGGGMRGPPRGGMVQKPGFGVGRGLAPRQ
In the case of C694R, the “effect of a mutation on the interaction” value is reported as “disrupting interaction strength”.

Variants of: B1
Details: with fus_mouse Fus
In the case of C694R, the “effect of a mutation on the interaction” value is reported as “disrupting interaction strength”.
